One data set concerns the target T1, CysO3H-peptide.
T1 chain: CHGSGAWL

The target in data set [1] is T2, 8-residue Cys-peptide (CHGSGAWL).
T2 chain: CHGSGAWL

Data set [2] addresses T3, 8-residue Asp-peptide (DHGSGAWL).
T3 chain: CHSGAWL

The target of data set [3] is Val-RGS4 (X-RGS4-flag, X=Val).
Data set [4] concerns the target Cys-RGS4 (X-RGS4-flag, X=Cys).
For data set [5], the target named is Asp-RGS4 (X-RGS4-flag, X=Asp).

The values that follow come from patent US20060084097.

B1: mouse ATE1-1 R-transferase C-terminally tagged with the polyoma and His6 epitopes (protein)
chain: MASWSAPSPSLVEYFEGQTSFQCGYCKNKLGSRSYGMWAHSMTVQDYQDLIDRGWRRSGKYVYKPVMDQTCCPQYTIRCHPLQFQPSKSHKKVLKKMLKFLAKGEISKGNCEDEPMDSTVEDAVDGDFALINKLDIKCDLKTLSDLKGSIESEEKEKEKSIKKEGSKEFIHPQSIEEKLGSGEPSHPIKVHIGPKPGKGADLSKPPCRKAREMRKERQRLKRMQQASAAASEAQGQPVCLLPKAKSNQPKSLEDLIFQSLPENASHKLEVRVVRSSPPSPQFRATFQESYQVYKRYQMVVHKDPPDKPTVSQFTRFLCSSPLEAEHPADGPECGYGSFHQQYWLDGKIIAVGVLDILPYCVSSVYLYYDPDYSFLSLGVYSALREIAFTRQLHEKTSQLSYYYMGFYIHSCPKMRYKGQYRPSDLLCPETYVWVPIEQCLPSLDNSKYCRFNQDPEAEDEGRSKELDRLRVFHRRSAMPYGVYKNHQEDPSEEAGVLEYANLVGQKCSERMLLFRHHHHHHH
As to B1, the “arginylation of peptide (capillary electrophoresis, MALDI-TOF MS), pH 7.5” value in the data set with CysO3H-peptide was “the Asp-peptide and the CysO3H-peptide were efficiently arginylated”; in data set [1], “the Cys-peptide was not arginylated”; in data set [2] it was “the Asp-peptide and the CysO3H-peptide were efficiently arginylated”. Besides, the “arginylation of peptide (capillary electrophoresis), pH 9.0” value in data set [1] was “arginylation of Cys-peptide was undetectable even at pH 9.0, in contrast to arginylation of CysO3H-peptide and Asp-peptide”. Also, the “3H-arginine conjugation (SDS-PAGE and fluorography)” value in data set [3] is recorded as “Val-RGS4 was not arginylated”; in data set [4], “a virtually complete dependence of the in vitro arginylation of Cys-RGS4 on its prior exposure to a donor of NO”; in data set [5] it was “Asp-RGS4 was efficiently arginylated irrespective of NO pretreatment”.

B2: S. cerevisiae ATE1 Arg-tRNA-protein transferase C-terminally tagged with His6 (protein)
chain: MSDRFVIWAPSMHNEPAAKCGYCHGNKGGNMDQLFALDSWAHRYMNKMDVVKIENCTIGSFVEHMDVATYDRMCNMGFRRSGKFLYKVDPLRNCCRLYTIRTAPQELNMTKELKKCISRFATRITSEDYCPAAVASSDFVGKIVNAEMNSKTFYTRFEPALYSEEKYHLFVKYQEKVHQDYNNSPKSFKRFLCDTPFGPEAVLGTQESWEQLNNWQRMKPGEKLKHMGPVHECYYYEGKLIAITVSDILPSGISSVYFIWDPDYSKWSLGKLSALRDLAIIQRTNLQYYYLGYYIEDCPKMNYKANYGAEVLDVCHSKYIPLKPIQDMISRGKLFVIGEEETKVTKELYLVDSETGRGEGFPTDNVVKYKNIAEEIYGVGGCAFKSANESALELKELYGIPYEEEDLDTIYHLKEHNGHAPNGIPNVVPGLLPLWELLDIMQSGKITDLEGRLFLFEIETEGIRPLINFYSEPPNVKKRICDVIRLFGFETCMKAVILYSEQMHHHHHH
On to B2, for which the “arginylation of peptide (capillary electrophoresis)” value with CysO3H-peptide is “Yeast R-transferase efficiently arginylated CysO3H-peptide, but not Cys-peptide”; in data set [1] it was “Yeast R-transferase efficiently arginylated CysO3H-peptide, but not Cys-peptide”; in data set [2] it was “The same results were obtained when mouse ATE1-1 was replaced, in the above assays, with purified S. cerevisiae ATE1 R-transferase”.
